The results in this text go back to patent publication US20260209355A1 (BIOND BIOLOGICS, published 2026).

Positions count from the first letter of the chain named.

One assay deals with T1, membranal human CD28 (human, UniProt P10747 19-220).
T1 construct: also called mCD28; HEK cells overexpressing human CD28
The assay can be described thus: FACS, FITC conjugated VHH on HEK cells overexpressing CD28. (In general: A flow cytometer gives signals particle by particle.)

Assay [1] concerns the target T2, c-Myc conjugated and biotinylated human CD28 stalk region dimeric peptide (wild-type) (human, C-terminal biotin; Cysteine at position 141 (CD28 numbering) forms the disulfide linkage of the dimer).
T2 construct: the Methods describe only this biotinylated dimeric peptide design, so it is used here; also called Biotin conjugated CD28 stalk region dimeric peptide; WT peptide
T2 peptide: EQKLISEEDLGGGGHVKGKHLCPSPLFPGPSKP
The assay can be described thus: phage library screen by ELISA and flow cytometry against recombinant CD28 extracellular domain and the dimeric stalk region peptide. (ELISA stands for enzyme-linked immunosorbent assay.)

Assay [2] deals with T3, L145K mutated biotinylated and Myc tagged human CD28 stalk region dimeric peptide (human, C-terminal biotin; Cysteine at position 141 (CD28 numbering) forms the disulfide linkage of the dimer).
T3 construct: also called L145K CD28 stalk region dimeric peptide; mutant peptide
T3 peptide: T2 peptide with L26K
The assay can be described thus: direct ELISA, peptide on neutravidin plate, anti His tag-HRP. As for the experimental part:
(§1) Biotin conjugated wild-type or L145K CD28 stalk region dimeric peptides were immobilized on neutravidin coated ELISA maxi-sorb plates. A dilution series of VHH clones (0.2-5 μg/mL) and an irrelevant VHH clone (top left chart) was performed and detection of bound VHH was done with anti His tag-HRP conjugated antibody and development was done with TMB.

In assay [3] the target is T2, c-Myc conjugated and biotinylated human …. The assay can be described thus: direct ELISA, WT stalk dimeric peptide on neutravidin plate, VHH 0.2-5 µg/mL. As for the experimental part:
as §1

B1: VHH clone 2A1 (VHH)
VHH: EVQLVESGGGLVQAGESLRLSCAASGSIASINAMGWYRQAPGSQRELVAAISGGGDTYYADSVKGRFTISRDNAKTTVYLQMNSLRPEDTAVYYCVVDLYGSDYWDWGQGTQVTVSS
modifications: FITC conjugated in the FACS assay of FIG. 6
notes: Produced recombinantly in CHO cells; from a naive llama VHH phage library; The printed text reads 'EVOLVESGGG' (probably Q); also called VHH #2A1
Take B1: the binding result is “binds” in the assay with membranal human CD28, “binds” in assay [1] and “no binding (tested: 0.2-5 µg/mL)” in assay [2].

B2: VHH clone 4A4 (VHH)
VHH: EVQLVESGGGLVQAGGSLRLSCAASGSLFSINAMAWYRQAPGKQRELVAAITSSGSTNYANSVKGRFTVSRDNAKNTMYLQMNSLKPEDTAVYYCVVDEYGSDYWIWGQGTQVTVSS
notes: Produced recombinantly in CHO cells
As for B2, the results for the binding result in assay [3] and in assay [2] were “binds” and “no binding (tested: 0.2-5 µg/mL)”, respectively.

B3: VHH clone 4A1 (VHH)
VHH: QVQLVESGGGLVQAGGSLRLSCAASGSIFSINAMGWYRQAPGKQRERVAAITSGGSTNYADSVKGRFTISRDNAKNTVYLQMNNLEPRDAGVYYCVVDLYGEDYWIWGQGTQVTVSS
notes: as for B2
In the case of B3, the binding result was “binds” in assay [3] and “no binding (tested: 0.2-5 µg/mL)” in assay [2].
